In patent US20040259781A1 (Novartis, published 2004):
Values belong to the molecule of their own block, whether it stands above or below them.

Legend:
[1] = molecular target: Fibronectin (purified from horse serum) (horse) (UniProt Q28377); experiment: cell-based or functional assay
[2] = molecular target: T1, Syndecan-1 overexpressed on T98G glioblastoma cells (mouse, UniProt P18828 23-311); experiment: GST pull-down of cell surface-bound FNIII13 and western blot, immunofluorescence
T1 construct: whole, on cells; also called T98G:S1
T1 sequence (looked up): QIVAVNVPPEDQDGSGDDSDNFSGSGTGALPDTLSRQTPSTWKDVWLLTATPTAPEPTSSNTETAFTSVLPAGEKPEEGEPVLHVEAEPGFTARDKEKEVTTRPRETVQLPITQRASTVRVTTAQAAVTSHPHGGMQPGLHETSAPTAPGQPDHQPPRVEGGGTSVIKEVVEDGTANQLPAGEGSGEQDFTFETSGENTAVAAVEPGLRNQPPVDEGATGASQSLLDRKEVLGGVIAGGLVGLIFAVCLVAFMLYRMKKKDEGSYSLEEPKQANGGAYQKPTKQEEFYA

[3] = scale: relative increase in cpm over cells plated on fibronectin

Sequence of Fibronectin (purified from horse serum) (horse) (Q28377 32-2477): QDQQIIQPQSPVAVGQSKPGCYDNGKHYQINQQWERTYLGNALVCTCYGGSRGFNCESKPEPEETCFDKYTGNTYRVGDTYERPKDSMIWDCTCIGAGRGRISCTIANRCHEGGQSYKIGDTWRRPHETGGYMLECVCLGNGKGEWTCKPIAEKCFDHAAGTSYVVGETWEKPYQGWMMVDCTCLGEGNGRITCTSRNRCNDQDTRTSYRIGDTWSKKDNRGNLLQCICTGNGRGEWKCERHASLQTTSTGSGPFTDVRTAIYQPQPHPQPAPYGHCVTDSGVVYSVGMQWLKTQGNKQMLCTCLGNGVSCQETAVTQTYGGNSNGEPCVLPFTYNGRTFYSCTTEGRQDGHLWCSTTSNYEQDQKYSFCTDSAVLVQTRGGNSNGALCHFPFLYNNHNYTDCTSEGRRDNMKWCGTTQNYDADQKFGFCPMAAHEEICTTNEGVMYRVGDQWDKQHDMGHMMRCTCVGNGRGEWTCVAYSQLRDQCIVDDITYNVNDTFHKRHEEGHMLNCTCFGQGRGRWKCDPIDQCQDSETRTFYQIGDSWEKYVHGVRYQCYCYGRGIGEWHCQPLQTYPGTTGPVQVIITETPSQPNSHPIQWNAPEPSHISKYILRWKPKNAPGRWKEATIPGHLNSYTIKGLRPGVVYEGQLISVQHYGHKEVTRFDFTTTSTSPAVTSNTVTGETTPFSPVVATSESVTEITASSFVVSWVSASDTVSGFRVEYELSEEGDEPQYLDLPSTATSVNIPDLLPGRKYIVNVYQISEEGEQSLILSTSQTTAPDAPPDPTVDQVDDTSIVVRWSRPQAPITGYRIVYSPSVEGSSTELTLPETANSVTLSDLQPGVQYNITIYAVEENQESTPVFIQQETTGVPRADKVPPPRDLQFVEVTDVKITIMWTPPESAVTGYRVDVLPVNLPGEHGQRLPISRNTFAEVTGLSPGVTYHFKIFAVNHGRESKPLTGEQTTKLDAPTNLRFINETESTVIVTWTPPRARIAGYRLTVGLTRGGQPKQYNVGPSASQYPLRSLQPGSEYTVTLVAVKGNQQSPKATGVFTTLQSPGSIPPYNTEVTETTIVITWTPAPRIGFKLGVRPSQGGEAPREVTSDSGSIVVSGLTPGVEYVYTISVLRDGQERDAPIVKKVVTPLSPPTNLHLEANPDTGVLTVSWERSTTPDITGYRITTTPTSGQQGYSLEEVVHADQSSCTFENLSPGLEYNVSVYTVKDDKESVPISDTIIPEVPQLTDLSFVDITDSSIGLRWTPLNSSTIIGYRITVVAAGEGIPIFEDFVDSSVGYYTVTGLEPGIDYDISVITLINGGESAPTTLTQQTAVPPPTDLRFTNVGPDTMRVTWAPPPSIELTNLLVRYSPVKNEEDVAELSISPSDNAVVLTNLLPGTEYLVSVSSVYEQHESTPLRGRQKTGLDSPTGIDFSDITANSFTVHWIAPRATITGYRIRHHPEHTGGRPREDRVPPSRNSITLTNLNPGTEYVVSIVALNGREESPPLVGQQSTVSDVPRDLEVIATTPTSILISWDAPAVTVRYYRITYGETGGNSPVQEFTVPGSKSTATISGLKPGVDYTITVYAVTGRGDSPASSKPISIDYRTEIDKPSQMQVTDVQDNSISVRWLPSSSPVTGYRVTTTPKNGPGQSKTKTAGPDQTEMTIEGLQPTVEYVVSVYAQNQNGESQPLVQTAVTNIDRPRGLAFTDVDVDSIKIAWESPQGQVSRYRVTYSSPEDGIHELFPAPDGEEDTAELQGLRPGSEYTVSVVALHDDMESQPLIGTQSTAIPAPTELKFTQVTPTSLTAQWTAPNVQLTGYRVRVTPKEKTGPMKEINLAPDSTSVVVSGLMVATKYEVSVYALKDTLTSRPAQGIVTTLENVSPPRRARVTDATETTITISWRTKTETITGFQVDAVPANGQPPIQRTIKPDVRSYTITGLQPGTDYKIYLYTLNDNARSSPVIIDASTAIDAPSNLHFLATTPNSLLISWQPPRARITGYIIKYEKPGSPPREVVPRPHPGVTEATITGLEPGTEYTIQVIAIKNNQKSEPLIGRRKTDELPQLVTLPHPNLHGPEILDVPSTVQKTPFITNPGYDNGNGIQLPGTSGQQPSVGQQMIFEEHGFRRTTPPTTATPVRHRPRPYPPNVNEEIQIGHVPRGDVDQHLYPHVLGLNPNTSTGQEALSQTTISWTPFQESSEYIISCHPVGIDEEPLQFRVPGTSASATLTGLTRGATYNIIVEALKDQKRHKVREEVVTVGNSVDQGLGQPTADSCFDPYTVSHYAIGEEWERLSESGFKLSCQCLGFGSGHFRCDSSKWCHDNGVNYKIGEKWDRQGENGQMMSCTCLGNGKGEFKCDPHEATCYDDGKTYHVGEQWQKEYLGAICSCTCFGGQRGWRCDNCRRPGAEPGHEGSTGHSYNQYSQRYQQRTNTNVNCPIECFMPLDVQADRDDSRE

CHO-B2 cells (ITS) attached on FN/TN substratum, 20 h (% of cells attached on fibronectin) [1]: 31.5
CHO-B2α27 cells (ITS) attached on FN/TN substratum, 20 h (% of cells attached on fibronectin) [1]: 45.1
CHO-K1 cells (ITS) attached on FN/TN substratum, 20 h (% of cells attached on fibronectin) [1]: 37.9
MDA MB 435 cells (insulin) attached on FN/TN substratum, 20 h (% of cells attached on fibronectin) [1]: 62.2
MDA MB 435 cells attached on FN/TN substratum, 1 h (% of cells attached on fibronectin) [1]: 24.5
MDA-MB435 cell number on fibronectin/tenascin-C against fibronectin, 51 h [1]: 24 % more cells
MDA-MB435 cell number on fibronectin/tenascin-C against fibronectin, 75 h [1]: 33 % more cells
T98G cells (PDGF-BB) attached on FN/TN substratum, 20 h (% of cells attached on fibronectin) [1]: 50.4
T98G cells attached on FN/TN substratum, 1 h (% of cells attached on fibronectin) [1]: 31.9
T98G cells partially spread on mixed fibronectin/tenascin-C substratum after 20 h [1]: 45%
DNA replication (3H-thymidine incorporation) of CHO-B2 cells on FN/TN [1, 3]: 2.6
DNA replication (3H-thymidine incorporation) of CHO-B2α27 cells on FN/TN [1, 3]: 2.5
DNA replication (3H-thymidine incorporation) of CHO-K1 cells on FN/TN [1, 3]: 2.3
DNA replication (3H-thymidine incorporation) of MDA MB 435 cells on FN/TN [1, 3]: 1.8
DNA replication (3H-thymidine incorporation) of T98G cells on FN/TN [1, 3]: 3
Molecule: Full length chicken tenascin-C TN260 (from UniProt P10039 34-1808)

attachment of syndecan-4 overexpressing T98G:S4 cells on fibronectin/tenascin-C substratum [1]: 64.7%
Molecule: Syndecan-4 overexpressed on T98G glioblastoma cells (receptor)

binding result [2]: no binding
B1: Recombinant 13th fibronectin type III repeat (FNIII13) (other)
chain: NVSPPRRARVTDATETTITISWRTKTETITGFQVDAVPANGQTPIQRTIKPDVRSYTITGLQPGTDYKIYLYTLNDNARSSPVVIDAST
notes: Obtained as in Bloom et al 1999; also called GST-tagged FNIII13; not shown: GST tag and His tag (pulled down with glutathione Sepharose, detected with anti-GST and anti-His, isolated on Ni-NTA)
